Measured values taken from patent US20220315920.

Tested on: TfuCascade (Cse2 N23A, Cas7-NLS) + TfuCas3 (Type I-E) Cse2 N23A (Thermobifida fusca)
Assay: cell_activity
Settings: PAM AAG; for activity (% editing (6-TG resistance)): HAP1 cells RNP

With “AUGGACCGAAGCCGAGGCUCCCCCAGCGAAGCCCCUUUCCGUGAGCCCCACGCACGUGGG / AAGAAGCCGAGGCTCCCCCAGCGAAGCCCCTTTCC / GGAAAGGGGCTTCGCTGGGGGAGCCTCGGCTTCTT [crRNA HPRT-G2 ; HPRT target G2 (PAM+protospacer)]” as the sequence, how does the activity (% editing (6-TG resistance)) read?
Its activity (% editing (6-TG resistance)) is 32.

For “AUGGACCGACCUUGCACUACCUGUGGCUUCCAUUUUCCUGGUGAGCCCCACGCACGUGGG / AAGACCTTGCACTACCTGTGGCTTCCATTTTCCTG / CAGGAAAATGGAAGCCACAGGTAGTGCAAGGTCTT [crRNA HPRT-G1 ; HPRT target G1 (PAM+protospacer)]”, which activity (% editing (6-TG resistance)) is on record?
Its activity (% editing (6-TG resistance)) is 67.

For “AUGGACCGCUGGACAUCACCUCCCACAACGAGGACUACACGUGAGCCCCACGCACGUGGG / AAGCTGGACATCACCTCCCACAACGAGGACTACAC / GTGTAGTCCTCGTTGTGGGAGGTGATGTCCAGCTT [crRNA tdTomato ; tdTomato target (PAM+protospacer)]”, which activity (% tdTomato-negative cells) (hESC RNP) is on record?
The activity (% tdTomato-negative cells) was 2.7.

For “AUGGACCGGCUACGUCCAGGAGCGCACCAUCUUCUUCAAGGUGAGCCCCACGCACGUGGG / AAGGCTACGTCCAGGAGCGCACCATCTTCTTCAAG / CTTGAAGAAGATGGTGCGCTCCTGGACGTAGCCTT [crRNA GFP-G1 ; EGFP target G1 (PAM+protospacer)]”, which activity (% EGFP-negative cells) (hESC RNP electroporation, 80 pmol Cascade, 20 pmol Cas3, 7.3% in FIG. 1D) is on record?
The activity (% EGFP-negative cells) was 13.1.

For “AUGGACCGUCGAUGCCCUUCAGCUCGAUGCGGUUCACCAGGUGAGCCCCACGCACGUGGG / AAGTCGATGCCCTTCAGCTCGATGCGGTTCACCAG / CTGGTGAACCGCATCGAGCTGAAGGGCATCGACTT [crRNA GFP-G2 ; EGFP target G2 (PAM+protospacer)]”, which activity (% EGFP-negative cells) (hESC RNP) is on record?
The activity (% EGFP-negative cells) was 2.7.
